In PMC5573662 (Bioorganic & medicinal chemistry, 2017):
Square brackets hold non-standard residues; d marks the D form. Ends that are not written are not given here. His(π-(CH2)8Ph) = N[C@@H](Cc1cncn1CCCCCCCCc1ccccc1)C(=O)O; pT = C[C@@H](OP(=O)(O)O)[C@H](N)C(=O)O

Target: full-length polo-like kinase 1 (Plk1) (UniProt P53350 1-603)
Experiment: ELISA

full-length polo-like kinase 1 (Plk1), sequence (P53350 whole entry): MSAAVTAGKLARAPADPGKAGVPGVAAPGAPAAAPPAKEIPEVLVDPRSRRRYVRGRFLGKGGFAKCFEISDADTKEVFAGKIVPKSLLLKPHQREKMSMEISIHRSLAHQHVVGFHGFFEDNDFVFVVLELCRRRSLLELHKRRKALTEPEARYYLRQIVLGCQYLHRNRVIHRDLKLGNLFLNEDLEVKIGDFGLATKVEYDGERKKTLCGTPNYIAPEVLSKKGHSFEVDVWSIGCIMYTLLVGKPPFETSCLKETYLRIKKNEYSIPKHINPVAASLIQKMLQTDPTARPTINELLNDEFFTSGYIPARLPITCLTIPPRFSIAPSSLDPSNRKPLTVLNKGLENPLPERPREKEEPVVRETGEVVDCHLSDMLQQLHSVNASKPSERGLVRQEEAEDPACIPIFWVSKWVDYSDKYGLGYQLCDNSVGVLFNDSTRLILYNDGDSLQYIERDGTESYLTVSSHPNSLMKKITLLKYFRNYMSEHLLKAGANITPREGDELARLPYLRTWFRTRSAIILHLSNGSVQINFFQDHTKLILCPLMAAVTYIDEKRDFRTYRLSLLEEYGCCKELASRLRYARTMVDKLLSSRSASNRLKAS

PL[His(π-(CH2)8Ph)]S[pT] [PLH*SpT (2a)] was tested, and the IC50 was 181 nM.
